Experimental data taken from patent US20100092974A1, “METHODS FOR SCREENING FOR MODULATORS OF CCRL2” (The Board of Trustees of the Leland Stanford Junior …, priority 2008, published 2010).

Experiments:
mCRTH2 [1] = biological target: T1, mCRTH2 (Mus musculus, UniProt Q9Z2J6); test: radioligand binding to untransfected or mCRTH2-HA-transfected cells; details: data not shown
T1 construct: The coding regions of mCCRL2, huCCRL2, mCRTH2, and huCCR10 were amplified from genomic DNA; expressed in transfected cells
T1 sequence (Q9Z2J6 1-382): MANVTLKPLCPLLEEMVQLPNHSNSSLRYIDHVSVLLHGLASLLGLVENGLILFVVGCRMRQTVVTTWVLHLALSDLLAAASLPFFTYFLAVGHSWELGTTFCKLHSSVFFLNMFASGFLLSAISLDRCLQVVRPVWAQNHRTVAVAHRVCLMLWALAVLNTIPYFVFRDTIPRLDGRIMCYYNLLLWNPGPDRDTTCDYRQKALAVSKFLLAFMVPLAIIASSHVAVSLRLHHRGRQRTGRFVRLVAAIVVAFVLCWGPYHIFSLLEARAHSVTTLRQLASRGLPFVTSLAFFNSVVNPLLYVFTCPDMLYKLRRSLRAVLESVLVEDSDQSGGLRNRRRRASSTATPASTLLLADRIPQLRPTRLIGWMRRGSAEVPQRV

huCCRL2 = biological target: T2, huCCRL2 (Homo sapiens, UniProt O00421); test: immunofluorescence-based chemerin-binding assay, huCCRL2-HA L1.2; details: read-out: EC50, untagged chemerin vs His8-tagged chemerin binding; 10 nM His8-tagged serum form chemerin, 30 min on ice, anti-His6 PE
T2 construct: The coding regions of mCCRL2, huCCRL2, mCRTH2, and huCCR10 were amplified from genomic DNA; expressed in transfected cells
T2 sequence (O00421 1-344): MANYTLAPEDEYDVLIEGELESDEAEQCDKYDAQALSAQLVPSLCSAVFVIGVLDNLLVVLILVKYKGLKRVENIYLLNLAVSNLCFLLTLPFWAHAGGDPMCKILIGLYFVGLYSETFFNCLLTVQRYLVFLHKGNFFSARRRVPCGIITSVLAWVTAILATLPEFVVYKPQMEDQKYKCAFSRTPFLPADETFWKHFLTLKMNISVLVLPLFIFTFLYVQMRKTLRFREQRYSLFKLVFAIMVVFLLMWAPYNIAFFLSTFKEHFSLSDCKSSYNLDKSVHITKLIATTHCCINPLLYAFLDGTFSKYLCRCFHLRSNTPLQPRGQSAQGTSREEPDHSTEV

mCRTH2 [2] = biological target: T1, mCRTH2; test: immunofluorescence-based chemerin-binding assay, mCRTH2-HA L1.2; details: 10 nM His8-tagged chemerin, anti-His6 PE
mCCRL2 [3] = biological target: T3, mCCRL2 (Mus musculus, UniProt O35457); test: intracellular calcium mobilization, mCCRL2/L1.2 transfectants; assay type: cell-based; details: Fluo-4; CXCL12 acts via endogenous CXCR4
T3 construct: The coding regions of mCCRL2, huCCRL2, mCRTH2, and huCCR10 were amplified from genomic DNA; expressed in transfected cells
T3 sequence (O35457 1-360): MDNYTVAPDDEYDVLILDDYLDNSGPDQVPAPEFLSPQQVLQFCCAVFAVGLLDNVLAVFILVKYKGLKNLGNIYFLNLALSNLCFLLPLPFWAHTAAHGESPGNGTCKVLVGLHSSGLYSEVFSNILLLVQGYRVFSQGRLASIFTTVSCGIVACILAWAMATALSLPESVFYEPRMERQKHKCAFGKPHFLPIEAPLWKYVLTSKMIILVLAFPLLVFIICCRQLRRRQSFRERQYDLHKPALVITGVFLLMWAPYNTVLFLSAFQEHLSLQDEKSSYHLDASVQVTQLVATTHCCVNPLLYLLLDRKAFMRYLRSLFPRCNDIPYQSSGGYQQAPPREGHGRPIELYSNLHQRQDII
Method: (§1) Chemoattractant-stimulated Ca^2+-mobilization was performed following Alliance for Cell Signaling protocol ID PP00000210. Cells (3×10^6/mL) were loaded with 4 μM Fluo4-AM and 0.16% Pluronic acid F-127 (Molecular Probes) in modified Iscove's medium (Iscove's medium with 1% heat inactivated bovine calf serum and 2 mM L-glutamine, Invitrogen) for 30 minutes at 37° C. The samples were mixed every 10 minutes during loading, washed once, resuspended at up to 2×10^6/mL in the same buffer, and allowed to rest in the dark for 30 minutes at room temperature. Chemoattractant-stimulated change in Ca^2+-sensitive fluorescence of Fluo-4 was measured over real-time with a FACsScan flow cytometer and CellQuest software (BD Biosciences) at room temperature under constant stirring (500 rpm). Fluorescent data were acquired continuously up to 1024 seconds at 1-second intervals. The samples were analyzed for 45 seconds to establish basal state, removed from the nozzle to add the stimuli, and then returned to the nozzle. Mean channel fluorescence over time was analyzed with FlowJo (TreeStar, Ashland, Oreg., USA) software. […] 500 μl of these chemerin-loaded cells were added to mCMKLR1/L1.2 cells loaded with Fluo4-AM, and calcium mobilization was evaluated.

mCCRL2 [4] = biological target: T3, mCCRL2; test: intracellular calcium mobilization, CCRL2/HEK293 transfectants; assay type: cell-based; details: HEK293 background, alone or in combination
Method: as §1

mCCRL2 [5] = biological target: T3, mCCRL2; test: in vitro transwell chemotaxis, mCCRL2/L1.2 transfectants; assay type: cell-based
Method: (§2) For migration experiments using cell lines, 2.5×10^5 cells/100 μl chemotaxis media (RPMI+10% fetal calf serum) were added to the top wells of 5-um pore transwell inserts (Costar, Corning, N.Y., USA), and test samples in 600 μl media were added to the bottom wells. After incubating the transwell plates for 1.5 hours at 37° C., the bottom wells were harvested and flow cytometry was used to assess migration. For primary cell chemotaxis, 1×10^6 cells/100 μl were added to the top well, and, following a 2 hour incubation at 37° C., polystyrene beads (15.0 μm diameter, Polysciences, Warrington, Pa., USA) were added to each well to facilitate normalization of the cell count. The cells were then stained for c-kit, F4/80, and/or CD11b expression and analyzed by flow cytometry. A ratio was generated and percent input migration was calculated.

[6] = tested on: mouse peritoneal mast cells; test: in vitro transwell chemotaxis, peritoneal mast cells; assay type: cell-based; details: SSChigh CD11b- c-kit+ cells
Method: as §2

mCCRL2 [7] = biological target: T3, mCCRL2; test: receptor internalization assay, mCCRL2-HA L1.2; assay type: cell-based; details: 100 nM chemerin, 15 min
Method: The cells were then washed with 200 μl PBS and stained with mouse anti-HA (Covance, Inc) or mIgG1 isotype control, followed by staining with secondary anti-mouse IgG1 PE, fixed, and analyzed by flow cytometry.

[8] = tested on: mouse peritoneal mast cells; test: chemerin internalization assay, peritoneal mast cells; assay type: cell-based; details: 10 nM His8-tagged serum form chemerin
Method: The primary cells were also stained with F4/80 and c-kit mAbs. Secondary anti-His6 PE was added to the cells and incubated for 30 minutes on ice. […] The cells were incubated for 5 minutes on ice with either PBS or acid wash buffer (0.2 M acetic acid, 0.5 M NaCl), and then analyzed by flow cytometry. Mast cells were identified by gating on SSC^high F4/80^− c-kit^+ cells.

## chemerin: protein ligand for signaling receptor CMKLR1; serum form human chemerin expressed in baculovirus-infected insect cells, His8-tag removed
mCRTH2 [1]
  radiolabeled chemerin binding: no binding was detected
huCCRL2
  EC50: 7 nM
mCRTH2 [2]
  chemerin binding: did not bind
mCCRL2 [3]
  intracellular calcium mobilization: failed to trigger
mCCRL2 [4]
  agonism, intracellular calcium mobilization: neither CCL2 nor chemerin functioned as agonists
mCCRL2 [5]; CCL2 with chemerin
  synergy of CCL2 and chemerin in transwell migration: did not synergize
mCCRL2 [5]; range of doses, CXCL12 and CCL19 act via endogenous CXCR4 and CCR7
  transwell migration: neither human nor mouse CCRL2-HA/L1.2 transfectants migrated
[6]
  transwell migration: failed to migrate
mCCRL2 [7]
  ligand-induced receptor internalization: failed to internalize
[8]
  chemerin internalization (acid wash): did not internalize
